Experimental data published in publication PMC9490035, “Unexpected structures formed by the kinase RET C634R mutant extracellular domain suggest potential oncogenic mechanisms in MEN2A” (The Journal of Biological Chemistry, 2022).

Experiments:
[1] = biological target: RET^C634R extracellular domain dimer (human RET residues 1-635 with C634R, C86R and C216S) (human) (UniProt P07949); assay: SEC-MALS; Superdex 200 10/300 GL, 0.25 ml/min, RT, 20 mM Hepes pH 7.5, 100 mM NaCl, 1 mM CaCl2
[2] = biological target: Fc-GDF15/GFRAL complex (formed beforehand) (human) (UniProt Q99988); assay: BLI; Fc-GDF15 (15 uM) immobilised on anti-hIgG Fc capture biosensors, saturated with GFRAL (3 uM), then RET^C634R 0.3-42 uM; saturation signals fitted to a sigmoidal model
[3] = biological target: GDF15/GFRAL complex (Homo sapiens) (UniProt Q99988); settings: cited from earlier work
[4] = biological target: T1, WT RET extracellular domain (human RET residues 1-635) (human, UniProt P07949 29-635, glycosylated (near-native glycans)); assay: native gel or EMSA; Blue Native PAGE; Fc-GDF15 dimer 2 uM + GFRAL 4 uM for 15 min (with or without thrombin), then RET^WT monomer 4 uM or RET^C634R dimer 2 uM; RET + copurified GDNF/GFRα1 at 1:1; 30 min at RT; run at 100 V, 4 °C; also after 5 min heating at 50-85 °C for melting curves; settings: both partners purified
T1 construct: signal peptide in the construct; human RET extracellular domain, residues 1-635; TEV site before the His8-Flag tags; also called RET^WT; RET^WT ECD; source: HEK293T, transient expression, secreted; purified (Ni-NTA, anti-Flag)
T1 sequence (P07949 29-635): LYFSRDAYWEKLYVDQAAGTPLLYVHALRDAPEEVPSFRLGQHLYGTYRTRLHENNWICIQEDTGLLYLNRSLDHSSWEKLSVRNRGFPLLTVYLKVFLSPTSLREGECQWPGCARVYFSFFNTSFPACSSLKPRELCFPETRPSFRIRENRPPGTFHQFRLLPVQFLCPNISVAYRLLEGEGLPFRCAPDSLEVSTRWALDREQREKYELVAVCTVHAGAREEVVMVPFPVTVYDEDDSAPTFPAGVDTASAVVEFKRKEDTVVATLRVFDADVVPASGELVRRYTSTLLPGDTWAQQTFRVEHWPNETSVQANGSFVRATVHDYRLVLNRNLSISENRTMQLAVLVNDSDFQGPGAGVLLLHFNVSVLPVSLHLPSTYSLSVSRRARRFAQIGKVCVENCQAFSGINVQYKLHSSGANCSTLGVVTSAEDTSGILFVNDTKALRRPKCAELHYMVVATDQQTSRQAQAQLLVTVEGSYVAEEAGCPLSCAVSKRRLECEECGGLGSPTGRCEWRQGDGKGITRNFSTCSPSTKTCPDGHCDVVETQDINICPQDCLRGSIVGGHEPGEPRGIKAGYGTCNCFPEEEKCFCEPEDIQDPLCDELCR

Molecule: RET^C634R extracellular domain dimer (human RET residues 1-635 with C634R, C86R and C216S) (from UniProt P07949 29-635) (domain or fragment)
- stoichiometry N [1]: 2
- Kd [2]: 8.5 µM

Molecule: RET ECD (from UniProt P07949)
- Kd [3]: 3.2 µM

B1: GDF15/GFRAL complex with the Fc removed by thrombin (formed beforehand) (complex, human)
chain 1: ARARNGDHCPLGPGRCCRLHTVRASLEDLGWADWVLSPREVQVTMCIGACPSQFRAANMHAQIKTSLHRLKPDTVPAPCCVPASYNPMVLIQKTDTGVSLQTYDDLLAKDCHCI
chain 2: SQTNNCTYLREQCLRDANGCKHAWRVMEDACNDSDPGDPCKMRNSSYCNLSIQYLVESNFQFKECLCTDDFYCTVNKLLGKKCINKSDNVKEDKFKWNLTTRSHHGFKGMWSCLEVAEACVGDVVCNAQLASYLKACSANGNPCDLKQCQAAIRFFYQNIPFNIAQMLAFCDCAQSDIPCQQSKEALHSKTCAVNMVPPPTCLSVIRSCQNDELCRRHYRTFQSKCWQRVTRKCHEDENCISTLSKQDLTCSGSDDCKAAYIDILGTVLQVQCTCRTITQSEESLCKIFQHMLHRKSCFNYPTLSNVKGMALYTRKHANKITLTGFHSPFNGE
notes: human GDF15, residues 195-308; human GFRAL, residues 19-351; as m4; not shown: modified Fc, N-terminal, cleaved; copies: 2 + 2
- binding result [4]: binds
